# Test: soluble on expression in E. coli; label from the status in PepcDB or PDB records
row,Sequence,soluble on expression in E. coli
1,MSLTNHQVSYFSLQDVKLLSSPFLQAQQTDLHYILALDPDRLSAPFLREAGLTPKAPSYTNWENTGLDGHIGGHYLSALSMMYAATGDTAIYHRLNYMLNELHRAQQAVGTGFIGGTPGSLQLWKEIKAGDIRAGGFSLNGKWVPLYNIHKTYAGLRDAYLYAHSDLARQMLIDLTDWMIDITSGLSDNQMQDMLRSEHGGLNETFADVAEITGDKKYLKLARRFSHKVILDPLIKNEDRLNGMHANTQIPKVIGYKRVAEVSKNDKDWNHAAEWDHAARFFWNTVVNHRSVCIGGNSVREHFHPSDNFTSMLNDVQGPETCNTYNMLRLTKMLYQNSGDVDNSNKPDPRYVDYYERALYNHILSSQEPDKGGFVYFTPMRPGHYRVYSQPETSMWCCVGSGLENHTKYGEFIYAHQQDTLYVNLFIPSQLNWKEQGVTLTQETLFPDDEKVTLRIDKAAKKNLTLMIRIPEWAGNSKGYEITINGKKHLSDIQTGASTYLPIRRKWKKGDMITFHLPMKVSLEQIPDKKDYYAFLYGPIVLATSTGTENLDGEGHHHHHH,soluble
2,MNPSLENLQLYPFQKLTKLFEDLVPRDSLPTPIGLHIGEPRHSTPEFIRQELINSLEGLAHYPTVLGTDRLRASIATWLTQRYHLSSIDPDTEVIPVNGSREALFSFAQAVIDTDHKAIQPAVVCQNPFYQIYEGAALLAGATPYFLNQLPENNFSADTAQLPDTVWERTQLVYICSPNNPTGKVLTLDEWKHLFDLSDRYGFVIAADECYSEIYFDEGHPPLGALEAAEKLGRSGFPRLVVFSSLSKRSNVPGMRSGFVAGDATILRKFLLYRTYHGSAMNPAVQAASTVAWSDEQHVAENRKLYYEKFTGAMHILGDTLPVSMPDAGFYLWLRTPVSGIEFSRRLYREGNVTVLPGSYLAREAHGMDPGEDFVRIALVAPVVECMEAMERIRDIARKF,not soluble
3,MSVIIVGGGMAGATLALAISRLSHGALPVHLIEATAPESHAHPGFDGRAIALAAGTCQQLARIGVWQSLADCATAITTVHVSDRGHAGFVTLAAEDYQLAALGQVVELHNVGQRLFALLRKAPGVMLHCPDRVANVARTQSHVEVTLESGEMLTGRVLIAADGTHSALATACGVDWQQEPYEQLAVIANVATSVAHEGRAFERFTQHGPLAMLPMSDGRCSLVWCHPLERREEVLSWSDEKFCRELQSAFGWRLGQITHAGKRSAYPLALTRAARPITHRTVLVGNAAQTLHPIAGQGFNLGMRDVMSLAETLTQAHERGEDIGDYGILCRYQQRRQSDREATIGVTDSLVHLFANRWAPLVVGRNIGLMTMELFTPARDVLAQRTLGWVARLEHHHHHH,soluble
4,MGSDKIHHHHHHMDHLPPLRLLVTFEAISRHGSMRDAAQRLNVTQPAVSQALKALEDHVGVALFDRSVRPARLTDAGEMLSRAVREGLGRIAATLEDIRALHAIGERQVTVSCTLGMATYWLMPKLPMFYADYPELTVNVQAPATDLPVLSPGIDVALRYGRGGWREGRTEKLFAEVICPVGAPALVERLLAEGATLAEAPLIHVRNPHNDHWAGWEDYLQARGIQRPRGGGQIFNNYVQAAQAIYDGRGLMLGWRSITGQAERDGALRAWPDGALDLGTSYFVTMPTTPSQDTLLFVDWVRKAAATV,not soluble
5,MGSDKIHHHHHHMSDQRYNLRGVSASKEDVHNAIKNIDKGIFPKAFCKIIPDILGGDPEYCNIMHADGAGTKSSLAYMYWKETGDLSVWKGIAQDALIMNIDDLLCVGAVDNILVSSTIGRNKLLVPGEVISAIINGTDELLAELREMGVGCYATGGETADVGDLVRTIIVDSTVTCRMKRSDVIDNKNIQGGDVIVGLASSGQATYEKEYNGGMGSNGLTSARHDVFSKYLAKKYPESYDAAVPKELVYSGGLKLTDKIEELGIDAGKMVLSPTRTYAPVIKVLLDKLRSQIHGMVHCSGGAQTKVMHFVENKRVTKDNLFPIPPLFRTIQEQSGTDWSEMYKVFNMGHRMEIYIAPEHAEEVIGISKSFGIDAQIVGFVEEADKNELIIESEKGRFTY,not soluble
6,MGSDKIHHHHHHMDNPRSIRVHASELEVGRPLSWAVYDENGVLLLNKGMAPATEAQIIAMLQRGVFRQPGSGVGAGAAGSKSAIPPMGLGPSEDESKTRLTGDPIPFDDLAMQPGEVLQLHPALEVVAADVPAVLIGYLKDRAIVVATPMVSGKPLLVKDGTLFNIKTFSGTSLYNFRTRVLASHSHPMPHLHLEYPRLVCQTKIRKALRALTDLPATLLNPASGDSRDVVLKDLSVGGAKIVLPEPVTCAKGDPFVVGFRIKIGDDLEEAIRADAVMCSAESRTGKETTVHTMSVQFKELPKSTSLAIMALVYRLQLRKG,not soluble
7,KKSPMLCGQYPVKSEGKELKIVVQPETQHRARYLTEGSRGSVKDRTQQGFPTVKLEGHNEPVVLQVFVGNDSGRVKPHGFYQACRVTGRNTTPCKEVDIEGTTVIEVGLDPSNNMTLAVDCVGILKLRNADVEARIGIAGSKKKSTRARLVFRVNIMRKDGSTLTLQTPSSPILCTQPAGVPEILKKSLHSCSVKGEEEVFLIGKNFLKGTKVIFQENVSDENSWKSEAEIDMELFHQNHLIVKVPPYHDQHITLPVSVGIYVVTNAGRSHDVQPFTYTPD,soluble
8,MPPQKYHCNVCAQDITRSIHIRCVECVDFDLCIPCFTSGASLGTHHPSHPYRIIETNSYPIFDENWGADEELLLIDACETLGLGNWADIADYVGNARTKEECRDHYLKTYIESDCYPLASVELPGPVDRIAFAARKRARIEAFQPPPIIPQKPLASTPQCHEIQGYMPGRLEFDQEYMNEAELPIKDMNFDDDLHESAKHEMQLKLTMLNIYNSRLTRRAVRKQTIFNHNLLDYRRLQANEKRMSKEERNLLNKTKAFARLLTGPDYQKFVNSYHEQITLKKQISDLQEWRQMGLTTLEQGHKYERDKTQKFLLSKASASYDKQLRHVKSFNQTTSAPFQVRDIQKIVPRKPATPTMFSASADRQLLSEDEQALCSKLQIFPKPFLALKFALISASLTSKKPFQKTDAVNLFKHLDANKVEQVYDFFHNARWIGAPT,soluble
9,MKVTVHAKNIELTNALKDCVEKKISKLSKYFEPGVEAKATLSVEKNKQIVEIMIPFNGILLRGEESTDDMYKSIDLVEEKIERQIRKQKTRLSKKNRYDSLRFAHIDPIEDMKEEKEAKIVKTKRFDVKPMGAEEAVLQMELIGHDFFVFQDPETNQLNVVYKRKDGNYGLIEPGLGEELEHHHHHH,soluble
10,MCICPNRQTAASVGQRYGEPVVLRVDAGRMHRNGLPFFKADNGVWLTAQVPAAFLTRPRLEHHHHHH,not soluble
11,MSLEEATVEDIMIPRTEIVGIDLDDPWSETLERLTNSQYTRMPVYRGTVDHVMGFVHVRRIVGDLVRGNFTPEDLQARLKEPFFIPEGTGLHTQLLKFQRQRERVGLVVDEYGEILGLAALDDILEEIVGEFTTDPGTLTRSINRQDDGTYLVEGSATVRELNRVLGWELETSGPKTLNGLILERLETIPEAGTSLLIDGYPVTIVQTQGNRVKTAEIQPERPPSVQREGHHHHHH,soluble
12,MFKDKKILVIGGTGSIGQALIERILTENPAVIRVYSRDEYKQFLLAEKFRENANIRYLIGDVRDEDRLDRAMNDIDIVFNLAALKHVPACEYNPFEAVRTNVIGSQNVIACAMANKVKKVIYTSSDKAVSPTNTMGATKLLAERLMSSSNYSRGNTGTVFASVRFGNVMGTRGSVIPLFKQQVLEKGYITVTEPEMTRFMMSLSQAVELTIKACSIARGGEVFVLKMPVIRLKDLAEVIIEDMCKKNNIDPEKIEIKKIGLRPGEKMYEELMSEDESTKAVELNDMYVIMPPFENSYYINARKAVIGNYSSQKEKTLTKSQIRELLVREKLI,not soluble
13,ETTSSIGEKVWDDKDNQDGKRPEKVSVNLLANGEKVKTLDVTSETNWKYEFKDLPKYDEGKKIEYTVTEDHVKDYTTDINGTTITNKYTPGETSATVTKNWDDNNNQDGKRPTEIKVELYQDGKATGKTAILNESNNWTHTWTGLDEKAKGQQVKYTVEELTKVKGYTTHVDNNDMGNLITTNKYTPETTSSIGEKVWDDKDNQDGKRPEKVSVNLLANGEKVKTLDVTSETNWKYEFKDLPKYDEGKKIEYTVTEDHVKDYTTDINGTTITNKYTPGETSATVTKNWDDNNNQDGKRPTEIKVELYQDGKATGKTAILNESNNWTHTWTGLDEKAKGQQVKYTVEELTKVKGYTTHVDNNDMGNLITTNKYT,soluble

# From the DeepSol protein solubility set
